Test results taken from patent publication US20240131065A1 (CRAGE MEDICAL, published 2024).

Molecular target: T1, CD94 monomeric Fc fusion protein (human, UniProt P0DOX5 223-449 = IgG part)
T1 construct: also called huFc(hole)-CD94-ECD and huFc(knob); human CD94 monomeric Fc fusion protein antigen
Experiment: phage display panning on coated CD94 monomeric Fc fusion protein, then ELISA
Method: Briefly, immunotubes were coated with 10 μg/ml of the antigene CD94 monomeric Fc fusion protein prepared above, blocked with phosphate buffered saline (MPBS) comprising 3% […] for 2 hours at room temperature. In order to screen for antibodies that specifically bind to CD94, the phage library was added to the immunotubes coated with the antigen CD94 monomeric Fc fusion protein and bound for 1.5 hours. The non-specific phages were then washed away, and the bound phages were eluted with 100 mM triethylamine and infected E. coli TG1 in logarithmic growth phase. Expanded culture of the eluted phages, and the expanded phage library was purified using PEG/NaCl precipitation for the next round of screening.
A total of three rounds of screening were performed, and 9 positive clones that specifically bind to CD94 were obtained after three rounds of screening. These clones were subsequently subjected to ELISA and sequencing analysis, two unique sequences were selected, 2B1 and 2F1, respectively. The ELISA results are shown in FIG. 2 (NA is the blank control group).

B1: 2B1 (Fab, V domains shown)
VH: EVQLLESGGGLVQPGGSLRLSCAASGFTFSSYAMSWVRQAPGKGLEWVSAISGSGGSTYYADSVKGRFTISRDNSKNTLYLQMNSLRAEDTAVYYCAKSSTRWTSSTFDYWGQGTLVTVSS
VL: DIQMTQSPSTLSASVGDRVTITCRASQSISSWLAWYQQKPGKAPKLLIYDASSLESGVPSRFSGSGSGTEFTLTISSLQPDDFATYYCQQYYFYPYTFGQGTKVEIKR
notes: Clone from a fully human Fab phage display library; also called antibody 2B1; CD94-specific antibody
binding result: binds
